In patent publication US20090068174A1, “THERAPEUTIC ALKALINE PROTEASE COMPOSITIONS AND USE IN FACILITATING THE TRANSPORT OF AGENTS ACROSS THE GASTROINTESTINAL MUCOSAL LINING” (Kansas University Medical Center Research Institute, Inc., priority 2007, published 2009):

Assays:
[1] = system: spontaneous colitis; assay: Spontaneous colitis in C3H/HeJBir mice; format: in vivo, mouse; details: weeks 6-10 of life
From the text: This particular mouse strain develops a transmural Th1-, cytokine-dependent colitis similar to CD that begins at 3-6 wk of life and gradually wanes until it resolves at 3 months of age. T cells and Th1 cytokines (IL-112, IFN-γ and TNF-α) mediate the disease which is maintained by an ongoing reaction to microbial flora antigens.
C3H/HeJBir mice can be obtained at 5-6 wk of age from Jackson Labs. Mice can be divided into three groups, for example: Group 1 should receive no further treatment and may simply be monitored for clinical signs, including daily measurements of body weight and endpoint pathology. Group 2 should be administered alkaline protease in their drinking water at a dose of 10-25 mg/kg/week for one week. Group 3 should be administered alkaline protease in their drinking water (dose determined above) for two weeks. After 1 week (Group 2 and half of Group 1) or 2 weeks (Group 3 and half of Group 1), animals can be sacrificed and body weight changes and histopathological scores of inflammation and tissue damage (leukocyte infiltration, ulceration, abscesses and fibrosis), activated caspase-3 expression and TNF-α expression can be measured by methods known in the art.

[2] = Protease stability and solubility in water; format: physicochemical
Experimental: For determining the stability of the alkaline protease in drinking water over 0-4 days, proteases can be dissolved in autoclaved tap water at a concentration of 1 mg/ml and stored at either 25° C. or 4° C. At regular intervals (every 3 hours at 0-18 hours, every 8 hours at 18-24 hours, and every 12 hours at 24-96 hours), aliquots can be ascetically removed and tested for their ability to cleave protamine sulfate using a modification of the ninhydrin assay of Rosen. Results are expressed as % residual activity measured immediately after preparation of the protease solutions.

[3] = system: TNBS-induced colitis; assay: Induction of IBD in the hapten (TNBS)-induced SJL mouse model; format: in vivo; details: SJL mice, i.p. and oral treatment
Experimental: This example uses the TNBS model in the SJL mouse, a susceptible strain, comparing systemic versus oral administration of the alkaline protease as a prophylactic treatment of blocking the induction of gastrointestinal inflammation. Endpoint measurements can include histopathological evaluation and scoring of the lesions as known in the art.
SJL strain mice (Jackson Labs) can be lightly anesthetized, and a solution of 25-50 μg of TNBS in 100 μl 50% ethanol can be administered by enema. Initial studies can determine whether sufficient pathology is induced by a single injection or whether the two challenge protocol (day 0 and day 7) is preferable. Response parameters include: (a) body weight measured on days 0, 2, 4, 6, 8, and 10; (b) pathological scoring of lesions in the intestine on day 10 (0=no inflam; 1=low level leukocyte infiltration; 2=medium infiltration, vascular intensity with some wall thickening; 3=high level infiltration, vascular response and thickening; 4=transmural infiltration, loss of goblet cells); (c) and immunohistological staining for activated caspase-3 and TNF-α. Wall thickening can be measured, for instance, as described by Dohi et al. (1999) “Hapten-induced colitis is associated with colonic patch hypertrophy and T helper cell 2-type responses.” J Expt Med 189: 1169-79, which is incorporated by reference. […]

[4] = system: established IBD; assay: Established IBD in the hapten model in SJL mice; format: in vivo, mouse
Experimental: SJL mice can be given TNBS by enema for the induction of colitis, and their body weights can be monitored every 3 days. When there has been a decrease in body mass by at least 15% (typically day 7), the animals can be given either four i.p. injections of 10 μg alkaline protease every 12 hours (Group 1) or administered alkaline protease in their drinking water at a concentration found above to decrease IBD parameters (Group 2). A control group can be challenged with TNBS, but would not receive protease (Group 3). Body weights can then be monitored daily, and at the end of one week, mice are euthanized and tissues taken for scoring the various histopathological and immunohistochemical parameters as known in the art.

B1: Alkaline Protease: Aspergillus oryzae alkaline protease (oryzin), SEQ ID NO: 2, purified from the protease powder of Example 1 (protein, listed as Aspergillus oryzae)
chain: MQSIKRTLLLLGAILPAVLGAPVQETRRAAEKLPGKYIVTFKPGIDEAKIQEHTTWATNIHQRSLERRGATGGDLPVGIERNYKINKFAAYAGSFDDATIEEIRKNEDVAYVEEDQIYYLDGLTTQKSAPWGLGSISHKGQQSTDYIYDTSAGEGTYAYVVDSGVNVDHEEFEGRASKAYNAAGGQHVDSIGHGTHVSGTIAGKTYGIAKKASILSVKVFQGESSSTSVILDGFNWAANDIVSKKRTSKAAINMSLGGGYSKAFNDAVENAFEQGVLSVVAAGNENSDAGQTSPASAPDAITVAAIQKSNNRASFSNFGKVVDVFAPGQDILSAWIGSSSATNTISGTSMATPHIVGLSLYLAALENLDGPAAVTKRIKELATKDWKDVKGSPNLLAYNGNA
- Weight loss and pathological lesions [1]: can correct the weight loss and the pathological lesions
- Solubility in water [2]: soluble in water
- Stability of catalytic activity on storage ([2]; 4° C. storage): stable with 4 °C storage for several weeks
- Retention of activity in water ([2]; for 2 days): > 80%
- Weight loss and IBD induction by TNBS [3]: can prevent and/or lessen weight loss and IBD induction by TNBS
- Effect on established IBD [4]: can reverse and/or lessen established IBD
